From patent US20190041402A1 (GOVERNING COUNCIL OF THE UNIVERSITY OF TORONTO, published 2019)
Where a chain is given by its changes, count along the chain named.

Tests used:
[1] = target: T1, extracellular domain (ECD) of human αKlotho, amino acids E34-S981 with C-terminal 6-His tag (R&D Systems … (human, UniProt Q9UEF7 34-981)); assay: SPR, Fab captured by anti-H+L antibody, αKlotho injected
T1 construct: range 34-981; also called αKlotho (aa34-981); target antigen
T1 sequence: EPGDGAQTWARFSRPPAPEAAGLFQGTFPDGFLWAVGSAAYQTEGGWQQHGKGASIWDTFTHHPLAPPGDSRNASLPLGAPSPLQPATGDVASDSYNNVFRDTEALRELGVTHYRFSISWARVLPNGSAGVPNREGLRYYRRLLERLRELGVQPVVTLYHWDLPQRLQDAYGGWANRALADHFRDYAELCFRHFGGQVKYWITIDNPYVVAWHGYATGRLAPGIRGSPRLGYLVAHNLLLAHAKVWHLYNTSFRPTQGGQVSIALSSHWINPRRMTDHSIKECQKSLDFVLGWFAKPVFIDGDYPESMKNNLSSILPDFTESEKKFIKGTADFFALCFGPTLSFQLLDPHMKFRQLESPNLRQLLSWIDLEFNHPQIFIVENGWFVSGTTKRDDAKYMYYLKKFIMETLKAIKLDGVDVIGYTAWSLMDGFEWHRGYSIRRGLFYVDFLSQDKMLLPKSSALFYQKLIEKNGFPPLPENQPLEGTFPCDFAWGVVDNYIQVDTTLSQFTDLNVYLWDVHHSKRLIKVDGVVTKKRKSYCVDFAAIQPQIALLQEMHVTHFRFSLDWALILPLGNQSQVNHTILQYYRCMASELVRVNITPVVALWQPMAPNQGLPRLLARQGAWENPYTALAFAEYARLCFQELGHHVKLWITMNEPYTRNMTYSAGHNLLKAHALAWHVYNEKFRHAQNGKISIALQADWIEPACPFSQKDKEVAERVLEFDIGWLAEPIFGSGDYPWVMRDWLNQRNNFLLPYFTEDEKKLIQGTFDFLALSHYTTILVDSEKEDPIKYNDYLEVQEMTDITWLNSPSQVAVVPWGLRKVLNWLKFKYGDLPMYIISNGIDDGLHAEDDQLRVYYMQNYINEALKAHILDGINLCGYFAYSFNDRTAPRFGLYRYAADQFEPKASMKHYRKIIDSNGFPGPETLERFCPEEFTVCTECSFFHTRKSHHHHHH
Protocol: (§1) Affinity estimates for each of the antibodies were determined by surface plasmon resonance (SPR). Fabs were immobilized using an anti-H+L antibody and serial dilutions of αKlotho were injected.

[2] = target: T1, extracellular domain (ECD) of human …; assay: SPR, Fab captured by anti-H+L IgG, αKlotho injected at 50 to 6.25 ug/ml, Langmuir fit [continued]
Protocol: as §1

[3] = target: T2, bovine serum albumin (bovine, UniProt P02769 25-607); assay: Fab ELISA, purified Fab 5 ug/ml on immobilised BSA, anti-Flag-HRP, A450
T2 construct: also called BSA
Protocol: FIG. 10 is a graph showing absorbance values of Fab ELISAs with additional αKlotho antibodies. Purified Fabs [5 ug/ml] were incubated with immobilized αKlotho (1 ug/ml) or bovine serum albumin (BSA), as a negative control. After washing off unbound Fab, bound Fab were detected using an HRP-conjugated anti-Flag anti-body (Fabs have Flag-tag on the light chain). Colorimetric HRP reagents allow for absorbance readings at 450 nm.

T2 sequence (P02769 25-607 limits assumed): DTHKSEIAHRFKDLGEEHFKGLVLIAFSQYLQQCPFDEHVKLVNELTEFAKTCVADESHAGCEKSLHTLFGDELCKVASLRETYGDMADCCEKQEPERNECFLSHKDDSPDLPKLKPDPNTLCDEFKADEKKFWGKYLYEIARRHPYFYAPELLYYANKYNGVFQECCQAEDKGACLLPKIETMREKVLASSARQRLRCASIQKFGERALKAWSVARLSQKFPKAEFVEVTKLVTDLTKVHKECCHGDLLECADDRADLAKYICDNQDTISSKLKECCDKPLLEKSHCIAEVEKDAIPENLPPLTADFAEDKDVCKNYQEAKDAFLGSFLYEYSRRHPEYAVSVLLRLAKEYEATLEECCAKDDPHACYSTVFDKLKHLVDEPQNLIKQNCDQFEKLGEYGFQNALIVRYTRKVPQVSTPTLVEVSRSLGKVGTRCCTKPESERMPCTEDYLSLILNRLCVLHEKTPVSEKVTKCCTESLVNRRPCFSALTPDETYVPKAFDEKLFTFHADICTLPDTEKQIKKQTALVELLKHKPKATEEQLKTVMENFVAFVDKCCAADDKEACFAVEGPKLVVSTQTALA

B1: anti-αKlotho Fab clone 4818 (Fab, V domains shown)
VH: EVQLVESGGGLVQPGGSLRLSCAASGFNISYSSIHWVRQAPGKGLEWVASISPYSGYTYYADSVKGRFTISADTSKNTAYLQMNSLRAEDTAVYYCARSGHSVYWWWSHFGMDYWGQGTLVTVSS
VL: DIQMTQSPSSLSASVGDRVTITCRASQSVSSAVAWYQQKPGKAPKLLIYSASSLYSGVPSRFSGSRSGTDFTLTISSLQPEDFATYYCQQPYSPITFGQGTKVEIKR
notes: Fab (also as Fab-phage); FLAG tag on light chain; also called sb187
[1]
  Kd: 2.1 nM
[2]
  Kd: 1.05 nM
  koff: 0.000539 s⁻¹
  kon: 512000 M⁻¹ s⁻¹

B2: anti-αKlotho Fab clone 4812 (Fab, V domains shown)
VH: EVQLVESGGGLVQPGGSLRLSCAASGFNLSSYSMHWVRQAPGKGLEWVASISSYSGYTSYADSVKGRFTISADTSKNTAYLQMNSLRAEDTAVYYCARSYSWWWSVSYAMDYWGQGTLVTVSS
VL: DIQMTQSPSSLSASVGDRVTITCRASQSVSSAVAWYQQKPGKAPKLLIYSASSLYSGVPSRFSGSRSGTDFTLTISSLQPEDFATYYCQQGYWLFTFGQGTKVEIK
notes: Fab (also as Fab-phage); FLAG tag on light chain; also called sb181
[1]
  Kd: 0.885 nM
[2]
  Kd: 0.387 nM
  koff: 0.000191 s⁻¹
  kon: 493000 M⁻¹ s⁻¹

B3: anti-αKlotho Fab clone 4816 (Fab, V domains shown)
VH: EVQLVESGGGLVQPGGSLRLSCAASGFNFSSSSIHWVRQAPGKGLEWVASISSSYGYTYYADSVKGRFTISADTSKNTAYLQMNSLRAEDTAVYYCARGWYAAYSVYWFGGHASYGLDYWGQGTLVTVSS
VL: DIQMTQSPSSLSASVGDRVTITCRASQSVSSAVAWYQQKPGKAPKLLIYSASSLYSGVPSRFSGSRSGTDFTLTISSLQPEDFATYYCQQSSYSLITFGQGTKVEIKR
notes: Fab (also as Fab-phage); FLAG tag on light chain; also called sb185
[1]
  Kd: 3.7 nM
[2]
  Kd: 2.06 nM
  koff: 0.00183 s⁻¹
  kon: 888000 M⁻¹ s⁻¹

B4: anti-αKlotho Fab clone 4815 (Fab, V domains shown)
VH: EVQLVESGGGLVQPGGSLRLSCAASGFNFSSSSIHWVRQAPGKGLEWVASISSSYGYTYYADSVKGRFTISADTSKNTAYLQMNSLRAEDTAVYYCARGFSSSAHWYWSWYGPGGGFDYWGQGTLVTVSS
VL: B3 VL
notes: Fab (also as Fab-phage); FLAG tag on light chain; also called sb184
[3]
  binding result: no binding (tested: 5 ug/ml)

B5: anti-αKlotho Fab clone 4821 (Fab, V domains shown)
VH: EVQLVESGGGLVQPGGSLRLSCAASGFNLYYSYMHWVRQAPGKGLEWVASISPYSGSTYYADSVKGRFTISADTSKNTAYLQMNSLRAEDTAVYYCARSGFSSWWWVVSYAFDYWGQGTLVTVSS
VL: B3 VL
notes: Fab (also as Fab-phage); FLAG tag on light chain; also called sb190
[1]
  Kd: 5.1 nM
[2]
  Kd: 2.85 nM
  koff: 0.00277 s⁻¹
  kon: 973000 M⁻¹ s⁻¹

B6: anti-αKlotho Fab clone 4823 (Fab, V domains shown)
VH: EVQLVESGGGLVQPGGSLRLSCAASGFNFSSSSIHWVRQAPGKGLEWVAYIYSSYGYTYYADSVKGRFTISADTSKNTAYLQMNSLRAEDTAVYYCARAAHYGYYVHSGLDYWGQGTLVTVSS
VL: B3 VL
notes: Fab (also as Fab-phage); FLAG tag on light chain; also called sb192
[3]
  binding result: no binding (tested: 5 ug/ml)
[1]
  Kd: 1.6 nM
[2]
  Kd: 0.991 nM
  koff: 0.000744 s⁻¹
  kon: 750000 M⁻¹ s⁻¹

B7: anti-αKlotho Fab clone 4817 (Fab, V domains shown)
VH: EVQLVESGGGLVQPGGSLRLSCAASGFNFSSSSIHWVRQAPGKGLEWVASISSSYGYTYYADSVKGRFTISADTSKNTAYLQMNSLRAEDTAVYYCARGYPSSGAAWFWFSHPGSAMDYWGQGTLVTVSS
VL: B3 VL
notes: Fab (also as Fab-phage); FLAG tag on light chain; also called sb186
[1]
  Kd: 4.1 nM
[2]
  Kd: 1.93 nM
  koff: 0.00269 s⁻¹
  kon: 1.39e+06 M⁻¹ s⁻¹

B8: anti-αKlotho Fab clone 4827 (Fab, V domains shown)
VH: EVQLVESGGGLVQPGGSLRLSCAASGFNFSSSSIHWVRQAPGKGLEWVAYISSSSGSTSYADSVKGRFTISADTSKNTAYLQMNSLRAEDTAVYYCARAYHSYFYGSYWSYGWAGALDYWGQGTLVTVSS
VL: B3 VL
notes: Fab (also as Fab-phage); FLAG tag on light chain; also called sb196
[3]
  binding result: no binding (tested: 5 ug/ml)

B9: anti-αKlotho Fab clone 4810 (Fab, V domains shown)
VH: EVQLVESGGGLVQPGGSLRLSCAASGFNLSSSSIHWVRQAPGKGLEWVAYISPSYGSTSYADSVKGRFTISADTSKNTAYLQMNSLRAEDTAVYYCARSGYYSGAYWHWWVVPYAMDYWGQGTLVTVSS
VL: B3 VL
notes: Fab (also as Fab-phage); FLAG tag on light chain; also called sb179
[3]
  binding result: no binding (tested: 5 ug/ml)

B10: anti-αKlotho Fab clone 4806 (Fab, V domains shown)
VH: EVQLVESGGGLVQPGGSLRLSCAASGFNISSSSIHWVRQAPGKGLEWVAYISSSYSSTSYADSVKGRFTISADTSKNTAYLQMNSLRAEDTAVYYCARSSGGGYYHWWVVPYAMDYWGQGTLVTVSS
VL: B3 VL
notes: Fab (also as Fab-phage); FLAG tag on light chain; also called sb175
[3]
  binding result: no binding (tested: 5 ug/ml)

B11: anti-αKlotho Fab clone 4834 (Fab, V domains shown)
VH: EVQLVESGGGLVQPGGSLRLSCAASGFNFSSSSIHWVRQAPGKGLEWVASISSSYGYTYYADSVKGRFTISADTSKNTAYLQMNSLRAEDTAVYYCARAVSFYYWAWYGPGFAMDYWGQGTLVTVSS
VL: B3 VL
notes: Fab (also as Fab-phage); FLAG tag on light chain; also called sb203
[3]
  binding result: no binding (tested: 5 ug/ml)

B12: anti-αKlotho Fab clone 4828 (Fab, V domains shown)
VH: EVQLVESGGGLVQPGGSLRLSCAASGFNFSSSSIHWVRQAPGKGLEWVASISSSYGYTYYADSVKGRFTISADTSKNTAYLQMNSLRAEDTAVYYCARYVVGGWWYHYGMDYWGQGTLVTVSS
VL: B3 VL
notes: Fab (also as Fab-phage); FLAG tag on light chain; also called sb197
[3]
  binding result: no binding (tested: 5 ug/ml)
[1]
  Kd: 4.9 nM
[2]
  Kd: 2.48 nM
  koff: 0.000782 s⁻¹
  kon: 315000 M⁻¹ s⁻¹

B13: anti-αKlotho Fab clone 4809 (Fab, V domains shown)
VH: EVQLVESGGGLVQPGGSLRLSCAASGFNIYSYYIHWVRQAPGKGLEWVASIYSYYGSTSYADSVKGRFTISADTSKNTAYLQMNSLRAEDTAVYYCARSGPWAWYGLDYWGQGTLVTVSS
VL: DIQMTQSPSSLSASVGDRVTITCRASQSVSSAVAWYQQKPGKAPKLLIYSASSLYSGVPSRFSGSRSGTDFTLTISSLQPEDFATYYCQQSGWAYHPITFGQGTKVEIKR
notes: Fab (also as Fab-phage); FLAG tag on light chain; also called sb178
[3]
  binding result: no binding (tested: 5 ug/ml)
[1]
  Kd: 0.845 nM
[2]
  Kd: 0.46 nM
  koff: 0.000258 s⁻¹
  kon: 560000 M⁻¹ s⁻¹

B14: anti-αKlotho Fab clone 4813 (Fab, V domains shown)
VH: EVQLVESGGGLVQPGGSLRLSCAASGFNLYSSSIHWVRQAPGKGLEWVASISPYSGYTYYADSVKGRFTISADTSKNTAYLQMNSLRAEDTAVYYCARYYSGWYSPAWWYGIDYWGQGTLVTVSS
VL: B13 VL with S91A, G92A, A94G, Y95G, H96A
notes: Fab (also as Fab-phage); FLAG tag on light chain; also called sb182
[1]
  Kd: 5.2 nM
[2]
  Kd: 2.8 nM
  koff: 0.00164 s⁻¹
  kon: 588000 M⁻¹ s⁻¹

B15: anti-αKlotho Fab clone 4826 (Fab, V domains shown)
VH: EVQLVESGGGLVQPGGSLRLSCAASGFNISSYYMHWVRQAPGKGLEWVASISSSYGYTYYADSVKGRFTISADTSKNTAYLQMNSLRAEDTAVYYCARGYPASSYYYPSSALDYWGQGTLVTVSS
VL: B13 VL with S91A, W93F, A94F, Y95S, H96Y
notes: Fab (also as Fab-phage); FLAG tag on light chain; also called sb195
[1]
  Kd: 3.3 nM
[2]
  Kd: 2.03 nM
  koff: 0.00218 s⁻¹
  kon: 1.07e+06 M⁻¹ s⁻¹

B16: anti-αKlotho Fab clone 4820 (Fab, V domains shown)
VH: EVQLVESGGGLVQPGGSLRLSCAASGFNISSYYMHWVRQAPGKGLEWVASIYSSYSSTYYADSVKGRFTISADTSKNTAYLQMNSLRAEDTAVYYCARGAWAMDYWGQGTLVTVSS
VL: B13 VL with G92P, A94G, Y95A, H96Y, P97L
notes: Fab (also as Fab-phage); FLAG tag on light chain; also called sb189
[3]
  binding result: no binding (tested: 5 ug/ml)
[1]
  Kd: 2.7 nM
[2]
  Kd: 1.48 nM
  koff: 0.00116 s⁻¹
  kon: 780000 M⁻¹ s⁻¹
